# Assay results reported in a protein production outcome set (Wang et al. 2014).
# Test: label from the status in PepcDB records
# 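Further: failed if final PepcDB status was selected cloned or expressed and not failed if soluble or beyond.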
row,Sequence,protein production
1,MFASCHCVPRGRRTMKMIHFRSSSVKSLSQEMRCTIRLLDDSEISCHIQRETKGQFLIDHICNYYSLLEKDYFGIRYVDPEKQRHWLEPNKSIFKQMKTHPPYTMCFRVKFYPHEPLKIKEELTRYLLYLQIKRDIFHGRLLCSFSDAAYLGACIVQAELGDYDPDEHPENYISEFEIFPKQSQKLERKIVEIHKNELRGQSPPVAEFNLLLKAHTLETYGVDPHPCKDSTGTTTFLGFTAAGFVVFQGNKRIHLIKWPDVCKLKFEGKTFYVIGTQKEKKAMLAFHTSTPAACKHLWKCGVENQAFYKYAKSSQIKTVSSSKIFFKGSRFRYSGKVAKEVVEASSKIQREPPEVHRANITQSRSSHSLNKQLIINMEPLQPLLPSPSEQEEELPLGEGVPLPKEENISAPLISSSPVKAAREYEDPPSEEEDKIKEEPLTISELVYNPSASLLPTPVDDDEIDMLFDCPSRLELEREDTDSFEDLEADENAFLIAEEEELKEARRALSWSYDILTGHIRVNPLVKSFSRLLVVGLGLLLFVFPLLLLLLESGIDLSFLCEIRQTPEFEQFHYEYYCPLKEWVAGKVHLILYMLGCS,failed
2,MFCGRFANFIMRDVINFIKKYNNFVIIGHKDPDFDCIGSSLALSSFLSRIGKNSILLNEGPFIRKEIVPFKDKFLSEWPNIEISEYSVIILDCSILDRIGDEFIFYVKNMPTLVIDHHMSGEKLECEGYIDPFAPSTTFLIEKLIREFGHDLTKEEAWYILVGFCTDTGFFKFISRSDPEPFEMVARLVSKGISLKEVYSYIETTKSLKSIETLKLMLNSLESYWNGKVLFTFLSSSSSGKDGGVSGVNELFYMILSNVENNEILGILKEMEDGSIIVGLRSKDSFDVGKLAEDFGGGGHKNASGFRIKQGSLEIVKNRMLAYIKDNIYLLEHHHHHH,failed
3,MFDATRAAFLGVAVFISVLLVASFFSPTPGRAVEPAPAGAPAQEGSLPHDGLGSIKPIHDVDLGGVEQPPLPAPVDPDPSFNPQPPFAPGELREGFVDVGNGNIRRYLIHVGTNYQPHAPELTPVVFGFGGWKDTPEKFADYSRFGLTDFGANAMIIYPEGIARAWEGAPYAATRVGDDVHFVRTILNAVDADYRIDRSRVYAVGMSNGGGMAASLACHAPDLVAGVVSVSAAYYEPVVADCAPGAVATLDIHGTHDEVIAYQGGMRHGAPFLGAEQVVAGVAARNGCGPALPPRWIEGPAEHYGFAGCAAPVEHVRVLGQKHVWNGVPHATTLAWEFLHHQHK,failed
4,MFDNLTDRLSRTLRNISGRGRLTEDNVKDTLREVRMALLEADVALPVVREFINRVKEKAVGHEVNKSLTPGQEFVKIVRNELVAAMGEENQTLNLAAQPPAVVLMAGLQGAGKTTSVGKLGKFLREKHKKKVLVVSADVYRPAAIKQLETLAEQVGVDFFPSDVGQKPVDIVNAALKEAKLKFYDVLLVDTAGRLHVDEAMMDEIKQVHASINPVETLFVVDAMTGQDAANTAKAFNEALPLTGVVLTKVDGDARGGAALSIRHITGKPIKFLGVGEKTEALEPFHPDRIASRILGMGDVLSLIEDIESKVDRAQAEKLASKLKKGDGFDLNDFLEQLRQMKNMGGMASLMGKLPGMGQIPDNVKSQMDDKVLVRMEAIINSMTMKERAKPEIIKGSRKRRIAAGCGMQVQDVNRLLKQFDDMQRMMKKMKKGGMAKMMRSMKGMMPPGFPGR,failed
5,MFDQYRKTILAGAVALTCGLTAASTFAAGFQPAQPAGKLGAVVVDPYGNAPLTALVELDSHIISDVKVTVHGKGEKGVPVTYTVGKESLETYDGIPIFGLYQKFANNVTVEYKENGKAMKDDYVVQTSAIVNHYMDNRSISDLQQTKVIKVAPGFEDRLYLVNTHTFTPQGAEFHWHGEKDKNAGILDAGPAGGALPFDIAPYTFVVDTQGEYRWWLDQDTFYDGHDMNINKRGYLMGIRETPRGTFTAVQGQHWYEFDMMGQILADHKLPRGFLDASHESIETVNGTVLLRVGKRVTAKKTAYMFILFVTKSLRSISLAALEHHHHHH,failed
6,MFDQYRKTILAGAVALTCGLTAASTFAAGFQPAQPAGKLGAVVVDPYGNAPLTALVELDSHIISDVKVTVHGKGEKGVPVTYTVGKESLETYDGIPIFGLYQKFANNVTVEYKENGKAMKDDYVVQTSAIVNHYMDNRSISDLQQTKVIKVAPGFEDRLYLVNTHTFTPQGAEFHWHGEKDKNAGILDAGPAGGALPFDIAPYTFVVDTQGEYRWWLDQDTFYNGHDMNINKRGYLMGIRETPRGTFTAVQGQHWYEFDMMGQVLADHKLPRGFLDASHESIETVNGTVLLRVGKRDYRKEDGIHVHTIRDQIIEVDKSGRVVDVWDLTKILDPMRDALLGALDAGAVCVNVDLAHAGQQAKLEPDTPYGDALGVGAGRNWAHVNSIAYDAKDDSIILSSRHQGIVKIGRDKQVKWILAPSKGWNKQLASKLLKPVDDHGKPLTCDENGKCKDTDFDFTYTQHTAWLSSKGTLTVFDNGDGRGLEQPALPTMKYSRFVEYKIDEKKGTVQQVWEYGKERGYDFYSPITSVVEYQKDRDTMFGFGGSINLFDVGKPTVGKLNEIDYKTKEVKVEIDVLSDKPNQTHYRALLVHPTQMFK,failed
7,MFDWLTNSTAIIIILPVVVFVLTLFLARFKFRKPQRRIMLAADLSTIFLIIAVHFFMIVIFNRSFLLYILLFLFILGIVIVVLAAKKEGEIQFRKILRGYWRLCFFIFALLYVVLYLYGIIYSLILLF,failed
8,MFELFQYDFMRNALLAATAISIFSPLLGVFLVLRRQSLMSDTLSHVSLAGVAFGVLLSWNPTITTLITVVIAAVFLEYLRTIYHNYMEIATAILMSAGLAIALLILNSSKGATSVSLEQYLFGSIITISLSQVIMLFVLAAVVLLGFILFLRPLYVMTFDEDTAFVDGLPVRWISIAFNIVTGVAIALMIPAAGALLVSAIMVLPASIAMRLGKSFKAVLFISAIVSFIGLNAGLIASYYMDAPASAAITLIFIVLFLVTSSLKRLIRA,failed
9,MFETFFSTYLSSTIRFLFLLAPFFVVTMFLALTRGLSMAEKTSIIRRACVSAFILGVILFFAGPLLFNAIGITLNSFRIGAGSLLFLTAISLVNSGTRNHATGLPEEDRDDIAVVPLAIPVMIGPATIGAIMVYGAELKAVPEVAGGLLGLVSGLMILAGLLRLSGYLEKALGKTGLNIMSKISGLILSAMAAEIVLTGIAGFIASTSGA,failed
10,MFFGLTLGTAVATGGRDSTLKRAAPQASCMDVHNVTAEAETFTCNAYLATGEQTTLVDAGAMRGVVDVIREHADALDAVVLTHQHGDHVQRLDTVLDAFDAPLYAYGSHPRRDHALADGDTLTVGDEECEVVYTPGHADDHVSLVSESALFSGDVVVHDDGAFDDGSFGRTDRPGQSRERLIESIERILDRMPAGVEHMYSGHGGVFHGDVREVVERALERAERREPKYPDD,failed
11,MFFKQFYDNHLSQASYLVGCQRTGEAIIIDPVRDLSKYIEVADSEGLTITQATETHIHADFASGIRDVAKRLNANIYVSGEGEDALGYKNMPSKTQFVKHGDIIQVGNVKLEVLHTPGHTPESISFLLTDLGGGSSVPMGLFSGDFIFVGDIGRPDLLEKSVQIKGSTEISAKQMYESVQNIKNLPDYVQIWPGHGAGSPCGKALGAIPISTIGYEKINNWAFNEIDETKFIESLTSNQPAPPHHFAQMKQVNQFGMNLYQSYDVYPSLDNKRVAFDLRSKEAFHGGHTKGTINIPYNKNFINQIGWYLDFEKDIDLIGDKSTVEKAKHTLQLIGFDKVAGYRLPKSGISTQSVHSADMTGKEEHVLDVRNDEEWNNGHLDQAVNIPHGKLLNENIPFNKEDKIYVHCQSGVRSSIAVGILESKGFENVVNIREGYQDFPESLKLEHHHHHH,not failed
12,MFFNFLIPPNSFSSFPEYVAFVVSLSYALNATLLLLYSRIFGVEVKEKAFIPVTLSFVAIDFTSIQGLRLFVGIPAYLGVVILTSLCILEGLALALTSSLALVNASRRHLAATWIAANVASSGLFMAFVGVS,failed
13,MFGISISSAILHFVIGGFAVALASIMADKVGGKLGGIIATMPAVYLAAIIALAIDHKGQQLIQMSIHLSTGAIVGIVSCIVTVFFTSIFIGKKNYRSGTVFAILCWFVISVAIFLVRHI,failed
14,MFGKLLKKEIKELLNLGAIVSVIVVAVLYGSLGNVFKSTVEKSTVGQKVAIVREDTGTIAELAEKALGNMVDIVYAGSDLKEAEEAVKKEKAPAIIVIPKGFSQSLESGEKARLEIVWYLRGTGLSEAVSTGTISSLIESLKVQLASFLLNDPKKAQLLFDPLEIVQHTYLRGSLFKNHSPEAIMNVFYSQNIMIPILIMMLIIMSGSSLISSLAMEKENKTLETLLTMPVKREHIALAKIVGSAIVGLILAGIYMAGFYSYLNSLTQNVQGMGLNFKAVDFLLMGSSLFLSILAGLSLCMLLGMMAKDYRSAQLLTFPISILALVPMIANMIMDFSNLPGVLKVIVFLIPFSHPIMSPKLAFYGDYGLIVSGILYLLIFSIVTTVFVFRIFNSDYVVLGWQREKRLKFFSR,failed
15,MFGMTLVNIFVPKLNLYHFVVGVIYLFPMIVIGFKIVKNRNITGLPLFICSGIVGVWAILLHMKMNLGHDYEFFSGPIQETVMLILLLVAVPLSYYVFACSVGCKDTRNMKALKIFPVVAFFIIVITEILGISYYGMANYVLLFSFLLLIGPLLGGLYIWEIMSNIQFKNYTT,failed
16,MFGQWEFDVSPTGGIAVASTEVEHFAGSQHEVDTAEVPSAAWGWSRIDHRTWHIVGLCIFGFLLAMLRGNHVGHVEDWFLITFAAVVLFVLARDLWGRRRGWIR,failed
17,MFIEALILLCLVGAAAVFIAPDRYAHKLALGLSVPPLVVSLYMYAAFDGSGNALLGGDIAYETATEWLQLGQYTVSYHVGLDGISLPLVVLSTVLTTLAILSAWTPIDERQSEFYGLVLLLEGSLIGVFAALDFILWFVFWEAVLIPMYLLIGVWGGPRRKYAAIKFFVYTNIASLVMFIGYFALVFGLGDAVSSTGMPAVAQALRADQLGYLGTAAVGIGPDMLAMAAFLAMFVGFAVKVPVVPFHTWLPDAHVEAPTPVSVLLAGVLLKMGTYALLRFNFTMLPDQVETFAVPIALIAIISILYGALLALAQKDLKRIVAYSSVSSMGYVILGLVAYTVYGVGGATFQMIAHGLISGLLFMTVGVFYNATHTRMVGDMGGLADRMPVTAGIFIAGAFGYMGLPLMAGFMAELFVFIGAFQSAILPYAPVITAAGMFGIVVVAGYLLWAMQRSLFGPFRLETDYELERAPVHDIVPLLTLVALIIALGVAPDLIFEMIRDATHSVIDYDFGGDL,failed
18,MFIKAERLLIRKFEFKDWEAVHEYTSDSDVMKYIPEGVFTEEDTRNFVNKNMGENAKNFPVILIGENILVGHIVFHKYFGEHTYEIGWVFNPKYFNKGYASEAAQATLKYGFKEMKLHRIIATCQPENTPSYRVMEKIGMRREGYFKKCIPHGNEWWDEYYYAILEEE,not failed
19,MFIKVKLPWDVTIPAEDMDTGLMLQRAIVIRLLEAFSKEKATKDLGYLITPTILENIGEGKIKEQTGEIQFPVVFNGICFKMFKGEIVHGVVHKVHKTGVFLKSGPYEIIYLSHMKMPGYEFIPGENPFFMNQYMSRIQIGARVRFVVLDTEWREAEKDFMALASIDGDNLGPF,failed
20,MFIYGHMEKSERKNYLRESREVSYISLALLIISYIVISSIRFSFYLLSIMLIVSLLNFSIYFYMRYKIHARYHKNIDIQGYILEDNSWRYVLSLSVLLTIFIFLEYPFPFIRFYSFILIVNAFVITTWIVSLNGPIIGMLISRSDPLYEPFLYRAMELANAMNINVPDLYILDTRNRIANAFTVSRKESYVFITRLLMNILDVDEVTAVMAHEFAHIKLRHNLKTSIINFAVILFLINIALYGLTLDSFAGIMLPVISIIIYMFFTTFLLNYIKRRNEINADLTAIKYVNPDYLISALHKIENLEIFSRRISDIYLDHPSIDRRISIINRSRSS,failed
21,MFKIDLFSNKKAVEGFILFQLTIVMISILISYKMAYSMTHIIEQNIIFNIIFGIVGFAVVYFLHEFIHNIMFRVMSKGNKPTYRIKSGLITTHMPNVYFKKWQYMTIMLAPLVIITSVLLVIFSYFAYSSIIFIACFHIGYCVMDMYFLTGLLNKHVQLIEDTEEGIKFYTQAPAPAQEFRTELKS,failed
